Reference: publication PMC9236607, “TUBA1A tubulinopathy mutants disrupt neuron morphogenesis and override XMAP215/Stu2 regulation of microtubule dynamics” (eLife, 2022)

B1: purified budding yeast tubulin heterodimer, Tub1-WT (internal 6X-His) with Tub2 [S. cerevisiae] / GST-TOG1/2 (the two TOG domains of Stu2 fused to a GST tag, Stu2 1-590) [S. cerevisiae] (parent complex)
chain 1: MREVISINVGQAGCQIGNACWELYSLEHGIKPDGHLEDGLSKPKGGEEGFSTFFHETGYGKFVPRAIYVDLEPNVIDEVRNGPYKDLFHPEQLISGKEDAANNYARGHYTVGREILGDVLDRIRKLADQCDGLQGFLFTHSLGGGTGSGLGSLLLEELSAEYGKKSKLEFAVYPAPQVSTSVVEPYNTVLTTHTTLEHADCTFMVDNEAIYDMCKRNLDIPRPSFANLNNLIAQVVSSVTASLRFDGSLNVDLNEFQTNLVPYPRIHFPLVSYSPVLSKSKAFHESNSVSEITNACFEPGNQMVKCDPRDGKYMATCLLYRGDVVTRDVQRAVEQVKNKKTVQLVDWCPTGFKIGICYEPPTATPNSQLATVDRAVCMLSNTTSIAEAWKRIDRKFDLMYAKRAFVHWYVGEGMEEGEFTEAREDLAALERDYIEVGADSYAEEEEF
chain 2: MREIIHISTGQCGNQIGAAFWETICGEHGLDFNGTYHGHDDIQKERLNVYFNEASSGKWVPRSINVDLEPGTIDAVRNSAIGNLFRPDNYIFGQSSAGNVWAKGHYTEGAELVDSVMDVIRREAEGCDSLQGFQITHSLGGGTGSGMGTLLISKIREEFPDRMMATFSVLPSPKTSDTVVEPYNATLSVHQLVEHSDETFCIDNEALYDICQRTLKLNQPSYGDLNNLVSSVMSGVTTSLRYPGQLNSDLRKLAVNLVPFPRLHFFMVGYAPLTAIGSQSFRSLTVPELTQQMFDAKNMMAAADPRNGRYLTVAAFFRGKVSVKEVEDEMHKVQSKNSDYFVEWIPNNVQTAVCSVAPQGLDMAATFIANSTSIQELFKRVGDQFSAMFKRKAFLHWYTSEGMDELEFSEAESNMNDLVSEYQQYQEATVEDDEEVDENGDFGAPQNQDEPITENFE
chain 3: MSGEEEVDYTTLPLEERLTYKLWKARLEAYKELNQLFRNSVGDISRDDNIQIYWRDPTLFAQYITDSNVVAQEQAIVALNSLIDAFASSSLKNAHNITLISTWTPLLVEKGLTSSRATTKTQSMSCILSLCGLDTSITQSVELVIPFFEKKLPKLIAAAANCVYELMAAFGLTNVNVQTFLPELLKHVPQLAGHGDRNVRSQTMNLIVEIYKVTGNNSDLLEEILFKKLKPIQVKDLHKLFAKVGDEPSSSKMLFEWEKRELEKKRSQEEEARKRKSILSNDEGEYQIDKDGDTLMGMETDMPPSKQQSGVQIDTFSMLPEETILDKLPKDFQERITSSKWKDRVEALEEFWDSVLSQTKKLKSTSQNYSNLLGIYGHIIQKDANIQAVALAAQSVELICDKLKTPGFSKDYVSLVFTPLLDRTKEKKPSVIEAIRKALLTICKYYDPLASSGRNEDMLKDILEHMKHKTPQIRMECTQLFNASMKEEKDGYSTLQRYLKDEVVPIVIQIVNDTQPAIRTIGFESFAILIKIFGMNTFVKTLEHLDNLKRKKIEETVKTLPNFSIASGSTHSTIETNKQTGPMENKFLLK

Variants of: B1
Experiment: in vitro binding assay: unbound tubulin in supernatant after GST-TOG1/2 incubation, α-tubulin western blot; highest GST-TOG1/2 concentration, est. ~5000 nM read from x axis; low constant tubulin concentration; n=3 experiments; parent: 14; read off a plot

With chain 1 V410A as the variant, how does the screen value read?
The screen value was about 85%.

How did the screen value turn out when chain 1 V410I was run?
Its screen value is about 71%.
